# Measurements as given in the nanobody polyreactivity screen of Harvey et al. (2022).
# Test: yeast display, Sf9 membrane polyspecificity reagent, FACS + sequencing; frameworks hold sequencing errors
# Outline: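 In a synthetic yeast display library (Saccharomyces cerevisiae BJ5465), nanobody expression was induced with galactose for 36–48 hours. FACS gates were set low and high (top ~1%) using anti-HA fluorescence for expression and streptavidin fluorescence for binding of the Sf9 membrane reagent. Each polyreactivity label is drawn from the gate of origin.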
row,Sequence,polyreactivity (PSR sort gate)
1,QVQLVESGGGLVQAGGSLRLSCAASGRTFSTYAMGWYRQAPGKERELVAAISTSGSRTYYADSVKGRFTISRDNAKNTVYFQMNSLKPEDTAVYYCAATPLYYRYYVWQYDYWGQGTQVTVSS,high polyreactivity
2,QVQLVESGGGLVQAGGSLRLSCAASGFIFLGNAMGWYRQAPGKERELVAAISSGGSTYADSVKGRFTISRDNAKNTVYLQMNSLKPEDTAVYYCAVDRAFRAQNYHEYDYWGQGTQVNVSS,low polyreactivity
3,QVQLVESGGGLVQEGGSLRLSCAASGSIFGRNAMGWYRQAPGKERELVAAITSRTGSTFYADSVKGRFTISRDNAKNTDYLQMNSLKPEATAVYYCKAAGPAFSYYHWLWGDYNSWGQGTQVTVSS,low polyreactivity
4,QVQLVESGGGLVQAGGSLRLSCAASGFTFTPNAMGRYRQAPGKERELVAVISYSGGSTYYADSVKGRFTISRDNAKNTVYLQMNSLKPEDTAVYYCAKRTYSSKYFGFEYWGQGTQVTVSS,high polyreactivity
5,QVQLVESGGGLVQAGGSLRLSCAASGFFFSHYAMGWYRQAPGKERVFVATISKRGGSTTYADSVKGRFTISRDNAKNTVYLQMNSLKPEDTAVYYCAATYYRFPSLIAYVRYDYWGQGTQVTVSS,high polyreactivity
6,QVQLVESGGGLVQAGGSLRLSCAASGSTFYQYVMGWYRQAPGKESELVAAISSSGGSTYYADSVKGRFTISRDNAKNTVYLQMTSLKPEDTAVYYCAVDNYRGYGHDYYWGQGTQVTVSS,low polyreactivity
7,QVQLVESGGGLVQAGGSLRLSCAASGRTFYRNAMGWYRQAPGKERELVAAISSDDSTNYADSVKGRFTISRDNAKNTVYLQMNSQKPEDTAVYYCNADYYYGYEYDYWGQGTQVTVSS,low polyreactivity
8,QVQLVESGGGLVQAGGSLRLSCAASGIFRSNTMGWYRQAPGKERELVATISRRSGSTYYADSVKGRFTISRDNAKNTVYLQMNSLKPEDTAVYYCAAAAPRRKYDYWGQGTQVTVSS,high polyreactivity
9,QVQLVESGGVLVQAVGSLRLSCAASGRIFKNYAMGWYIQAPGKESELVAAISWSGGRTYYADSVKGRFTISRDNAKNTVYLQMNSLKPEDTAVYYCAVDFYYYGSRYYYWGQGTQVTVSS,high polyreactivity
10,KVQLVESGGGLVQAGGSLRLSCAASGSIFYVNAMGWYRQAPGKERELVARITLSGTSTYYADSVKGRLTISRDNAKNTVYLQMNSLKPEDTAVYYCAATYWSWISLRFYWGQGTQVTVSS,low polyreactivity
11,QVQLVESGGGLVQAGGSLRLSCAASGFIFAGYPMGWYRQAPGKERELVAGITRNGGSTYYADSVKGRFTISRDNAKNTVYLQMNSLKPEDPAVYYCAATRYSFGPRRVDYWGQGTQVTVSS,high polyreactivity
12,QVQLVESGGGLVQAGGSLRLSCAASGLIFIHNTMRWYRQAPGKERELVAAISWSGASTYYADSVKGRFTISRDNAKNTVYLQMNSLKPEDTAVYYCNAGYRYSIYDYWGQGTQVTVSS,low polyreactivity
13,QVQLVESGGGLVQAGGSLRLSCAASGFIFKIYAMGWYRQAPGKERELVAAISSGDNTNYADSVKGRFTISRDNAKNTVYLQMNSLKPEDTAVYYCAARAYRWRSFSTMYYWGQGTQVTVSS,high polyreactivity
14,QVQLVESGGGLVQAGGSLRLSCAASGSTLLYYAMGWYRQAPGKERELVAAISWRGGSTYYADSVTGRFTISRDNAKTTVYLQINSLKPEDTAVYYCARDIRLKGFRYDYWGQGTQVTVSS,high polyreactivity
15,QVQLVESGGGLVQAGGSLRLSCAASGSIFRKYAMGWYRQATGKERELVAVITTDGSTNYADSVKGRFTISRDNAKNTVYLQMNSLKPEDTAVYYCNAVRSSIGTDNDYWGQGTQVTVSS,low polyreactivity
16,QVQLVESGGGLVQAGGSLRLSCAASGSIFTPNVMGWYRQAPGKERELVAAISQSGGSTFYADSVKGRFTISRDNAKNNVYLQMNSLKPEDTAVYYCAADPFYYFPSPFDYWGQGTQVTVSS,low polyreactivity
17,QVQLEESGRGLVPAGGSLRLSCAASGFTFDYNTMGWYRQAPGKERELVAAISFRGTSTYYADSVKGRFTISRDNAKNTVYLQMNSLKREDTAVYYCATRDYHVPGRFYYWGQGTQVTVSS,high polyreactivity
18,QVQLVESGGGLVQAGGSLRLSCAASGRIFPENAMGWYRQAPGKERELVAAINNNDGDTYYADSVKGRFTISRDNAKNTVYLQMNSLKPEDTAVYYCAADEAYWLSYVWGIGYDYWGQGTQVTVSS,low polyreactivity
19,QVQLVESGGGLVQAGGSLRLSCAASGSTFRYYAMGWYRQAPGKERELVAGITSAGNTYYADSVKGRFTISRDNAKNTVYLQMNSLKPEDTAVYYCAARRWKGYYYWGQGTQVTVSS,high polyreactivity
20,QVQLVESGGRLVQAGGSLRLSCAASGFIFAYYSMGWYRKAPGKERELVAAISQSGTSTYYADSLKGRFTISRAKAKNTVYLQMNSLKPVDTAVYYCNAELRDLEYDYWGQGTQVTVSS,low polyreactivity
21,QVQLVESGGGLVQAGGSLRLSCAASGFTFVYNAMGWYRQAPGKERELVAAINSGGRTNYADSVKGRFTISRDNAKNTVYLQMNSLKPEDTAVYYCAAEVTSFSFGGDATEYYWGQGTQVTVSS,low polyreactivity
22,QVQLVETGACLVQAGGSLRLSCAASGLTFFGYTMGRYRQAHGKEREFVADITWSGGSTYYADSVKGRFTISRDNAKNTVYLQMNSLKPEDTAVYYCAVAPPNWDPFVDDTYLMDYWGQGTQVTVSS,low polyreactivity

row,Sequence,polyreactivity (PSR sort gate)
1,HVLLVESAGGLVQAGGSLRLSCAASGLIFHRYAMGWYRQAPGKERELVAAISSSGGITYYADSVKGRFTISRDNAKNTVYLQMNSLKPEDTAFYYCAADTGKGTPFSAGLGRAGDYWGQVTQVTVSS,low polyreactivity
2,QVQLVESGGGLVQAGGSLRLSCAASGSIFVKNAMGWYRQAPGKERELVAVITIRTATPYYADSVKGRFTISRDNAKNSVYLQMNSLKPEDTAVYYCAAAKRQRGYLQREGNYWGQGTQVTVSS,low polyreactivity
3,QVQIVESGGGLVQAGGSLRVSCAPSGNISYSYDMGWYRQAPGKERELVASITESGGSTYYADSVKGRFTISRDNAKNTVYFQMNILKPEDTAVYYCYWGHGTQVTVSS,low polyreactivity
4,QVQLVESGGGLVQAGGSLRLSCAASGFIFSWYAMGWSRQAPGKERELVAAISHDGGSTYYADSVKGRFTISRDNAKNTVYLQMNSLKPEDTAVYYCAAAFRAAGRTVRYYWGQGTQVTVSS,high polyreactivity
5,QVQLVESGGGLVQAGGSLRLSCAASGLTFGSNGMGWYRQAPGKERELVAAISRGGSTSYADSVKGRFTISRDNAKNTVYLQMNSLKPEDTAVYYCAARSYRYSYRYRAFDYWGQGTQVTVSS,high polyreactivity
6,QVQLVESGGGLVQAGGSLPLSSAASGITFRLYALGWYRQAPGKERELVATITSLGGGTYYADSVKGRFTISRDNAKNTVYLQMHCLIPEDTAVYYCAADVSRPPAGFNYWGQGSQVTVSS,high polyreactivity
7,QVQLVESGGGLVQAGGSLRLSCAASGSIFIRNAKGWYRQAPGKERELVAAISTIGGRTYYADSVKGRFTISRDNAKNTVYLQMNSLKPEDTAVYYCAAEQGTPSTNWYDYWGQGTQVTVSS,low polyreactivity
8,QVQLVESGGGLVQAGGSLRLSCAASGTFAFYTMGWYRPAPGKERELVAAISWDGGDTYYADSVKGRFTISRDNAKNTVYLQMNSLKPEDTAVYYCAADYSNSGYGYWGQGTQVTVSS,low polyreactivity
9,QVQLVESGGGLVQAGGSLRLSCAASGSIIKPYDMGWYRQAPGKERELVAAIRSSGGRTNYADSVKGRFTISRDNAKNTVYLQMNSLKPEDTAVYYCAAGYVSYWYYRYDYWGQGTQVTVSS,high polyreactivity
10,QVQLVESGGGLVQAGGSLRLSCAASGSIFGYYVMGWYRQAPGKERELVAAITRSGSTYYADSVKGRFTISRDNAKNTVYLQMNSLKPEDTAVYYCAADGSYYWYPHTTYDYWGQGTQVTVSS,low polyreactivity
11,QVQLVESGGGLVQAGGSLRLSCAASGNISPGNVMGWYRQAPGKERELVAAITISGGSTYYADSVKGRFTISRDNAKNTVYLQMNSLKPEDTAVYYCAKRTKFYYTGSGYGKYYYWGQGTQVTVSS,high polyreactivity
12,QVQLVESGGGLVQAGGSLRLSCAASGSIFLIYAMGWYRQAPGKERELVAAITGGGTTNYADSVKGRFTISRDNAKNTVYLQMNSLKPEDTAVYYCNAVPRSWSPYRHWFDYWGQGTQVTVSS,low polyreactivity
13,QVQLEESGGGLVQAGGSLRLSCAASGSIFPHYAMRWNRQAPGKERELVAAISRSGTSTYYADSVKGRFPISRDNAKNTVYLQMNSLKPEHTAVYYCNAYQVYTRTYGYWGQGTQVTVSS,high polyreactivity
14,QVQLVESGGGLVQAGGSLRLRCAASGSIFRYNPMGWYRQAPGKERELVAPISWSGGHTYYADSVKGRFTISRDNAKNTDYLQLNSLKPEDTAVYYWATVPRKTPGNAELDYWGQGTQVTVSS,high polyreactivity
15,QVQLVESGGGLVQAGGSLRLSCAASGSTFSRYTMGWSRQAPGKERELVAAISYRGGSTYYADSVKGRFTISRDNAKNTVYLQMNSLKPEDTAVYYCAADAEGSASKYDYWGQGTQVTVSS,low polyreactivity
16,QVQLQESGGGLVQAGGTLRLSCAANGNISYSNPMGWYRQPPGKEREFVASINPGSTTNYMDSVKGRFTISRDNAKNTVYLQMNSLKPEDTAVYYCNSVFFKSRQGQMYYWGQGSQVTVSS,high polyreactivity
17,QVQLVESGGGLVQAGGSLRLSCAASGITFGSNTMGLYRQAPGKERELVAVITWSGGSTYYADSVKGRFTISRDNAKNTVYLQMNSLIPEDTAVYDCAKPGEVNGQPPPQTESAYDYRGQGTQVTVSS,low polyreactivity
18,QVQLVESGGGLVQAGGSLRLSCAASGRTYYDYAKGCYRQAPGKEREFVSAITDRDASTSYADSVKGRFTISRDNAKTTVYLQMNSLKPYDTAVYYCAADEYWYKPYVGELYAYVYWGEGTQVTVSS,low polyreactivity
19,QVQLVESGGGLVQAGGSLRLSCAASGLTFYGNAMGWYRQAPGKERELVADISLSGGRTFYADSVKGRFTISRDNAKNTVYLQMNSLKPEDTAVYYCAAVWRTGWYYEYYHWGQGTQVTVSS,low polyreactivity
20,QVQLVESGGGLVQAGGSLRLSCAASGLIFLYYAMGWYRQAPGKERELVAAISRRGGSTYYADSVKGRFTISRDNAKNTVYLQMNSLKPEDTAVYYCAAKYESYPGGIWTYYYWGQGTQVTVSS,high polyreactivity
21,QVQLVESGVGLVQAGGSLLLSCAASGRIFRVYAMGWYRQAPGKERELVAAISWSGGRTYYADSVKGRFTISRDNAKNTVYLQMNSLKPEDTAVYYCAAERCGPTYYSGGDYDYWGQGTQVTVSS,high polyreactivity
